In paper PMC8266045, “MT1-MMP-dependent ECM processing regulates laminB1 stability and mediates replication fork restart” (PLoS ONE, 2021):

B1: laminB1 (natural protein, human (endogenous in MDA-MB-231), UniProt P20700 1-586, looked up)
chain: MATATPVPPRMGSRAGGPTTPLSPTRLSRLQEKEELRELNDRLAVYIDKVRSLETENSALQLQVTEREEVRGRELTGLKALYETELADARRALDDTARERAKLQIELGKCKAEHDQLLLNYAKKESDLNGAQIKLREYEAALNSKDAALATALGDKKSLEGDLEDLKDQIAQLEASLAAAKKQLADETLLKVDLENRCQSLTEDLEFRKSMYEEEINETRRKHETRLVEVDSGRQIEYEYKLAQALHEMREQHDAQVRLYKEELEQTYHAKLENARLSSEMNTSTVNSAREELMESRMRIESLSSQLSNLQKESRACLERIQELEDLLAKEKDNSRRMLTDKEREMAEIRDQMQQQLNDYEQLLDVKLALDMEISAYRKLLEGEEERLKLSPSPSSRVTVSRASSSRSVRTTRGKRKRVDVEESEASSSVSISHSASATGNVCIEEIDVDGKFIRLKNTSEQDQPMGGWEMIRKIGDTSVSYKYTSRYVLKAGQTVTIWAANAGVTASPPTDLIWKNQNSWGTGEDVKVILKNSQGEEVAQRSTVFKTTIPEEEEEEEEAAGVVVEEELFHQQGTPRASNRSCAIM
notes: Lamin B1, nuclear envelope intermediate filament protein, endogenous in human MDA-MB-231 breast cancer cells; The introduction says that laminB1 is tethered to the membrane via a farnesyl group; nothing is said of the modification state in the co-IP; also called LMNB1; source: endogenous, MDA-MB-231 lysate (RIPA buffer)
B2: Focal Adhesion Kinase (natural protein, human (endogenous in MDA-MB-231), UniProt Q05397 1-1052, looked up)
chain: MAAAYLDPNLNHTPNSSTKTHLGTGMERSPGAMERVLKVFHYFESNSEPTTWASIIRHGDATDVRGIIQKIVDSHKVKHVACYGFRLSHLRSEEVHWLHVDMGVSSVREKYELAHPPEEWKYELRIRYLPKGFLNQFTEDKPTLNFFYQQVKSDYMLEIADQVDQEIALKLGCLEIRRSYWEMRGNALEKKSNYEVLEKDVGLKRFFPKSLLDSVKAKTLRKLIQQTFRQFANLNREESILKFFEILSPVYRFDKECFKCALGSSWIISVELAIGPEEGISYLTDKGCNPTHLADFTQVQTIQYSNSEDKDRKGMLQLKIAGAPEPLTVTAPSLTIAENMADLIDGYCRLVNGTSQSFIIRPQKEGERALPSIPKLANSEKQGMRTHAVSVSETDDYAEIIDEEDTYTMPSTRDYEIQRERIELGRCIGEGQFGDVHQGIYMSPENPALAVAIKTCKNCTSDSVREKFLQEALTMRQFDHPHIVKLIGVITENPVWIIMELCTLGELRSFLQVRKYSLDLASLILYAYQLSTALAYLESKRFVHRDIAARNVLVSSNDCVKLGDFGLSRYMEDSTYYKASKGKLPIKWMAPESINFRRFTSASDVWMFGVCMWEILMHGVKPFQGVKNNDVIGRIENGERLPMPPNCPPTLYSLMTKCWAYDPSRRPRFTELKAQLSTILEEEKAQQEERMRMESRRQATVSWDSGGSDEAPPKPSRPGYPSPRSSEGFYPSPQHMVQTNHYQVSGYPGSHGITAMAGSIYPGQASLLDQTDSWNHRPQEIAMWQPNVEDSTVLDLRGIGQVLPTHLMEERLIRQQQEMEEDQRWLEKEERFLKPDVRLSRGSIDREDGSLQGPIGNQHIYQPVGKPDPAAPPKKPPRPGAPGHLGSLASLSSPADSYNEGVKLQPQEISPPPTANLDRSNDKVYENVTGLVKAVIEMSSKIQPAPPEEYVPMVKEVGLALRTLLATVDETIPLLPASTHREIEMAQKLLNSDLGELINKMKLAQQYVMTSLQQEYKKQMLTAAHALAVDAKNLLDVIDQARLKMLGQTRPH
notes: Focal adhesion kinase (FAK), endogenous in human MDA-MB-231 breast cancer cells; Endogenous protein; also called FAK; source: endogenous, MDA-MB-231 lysate (RIPA buffer)

Tests used:
Focal Adhesion Kinase = biological target: B2; test: co-IP; MDA-MB-231 lysate in RIPA buffer (50mM Tris HCl pH 8, 150 mM NaCl, 1% NP-40, 0.5% sodium deoxycholate); immunoprecipitated overnight at 4°C with FAK antibody; immunoblot with anti FAK and anti laminB1; IgG as negative control; conditions: partners not purified
laminB1 = biological target: B1; test: co-IP; MDA-MB-231 lysate in RIPA buffer (50mM Tris HCl pH 8, 150 mM NaCl, 1% NP-40, 0.5% sodium deoxycholate); immunoprecipitated overnight at 4°C with laminB1 antibody; immunoblot with anti FAK and anti laminB1; IgG as negative control; conditions: partners not purified

enrichment versus input (Focal Adhesion Kinase) | enrichment versus input (laminB1) | Binder
5.5 ± 0.4 fold versus input |  | B1
 | 6.4 ± 1.05 fold versus input | B2
